According to article PMC2944810:

Molecular target: GFP:2B (Grapevine fanleaf virus movement protein 2B fused to EGFP) (Grapevine fanleaf virus)
Experiment: FRET or BRET; FRET-FLIM in living N. benthamiana leaf epidermal cells after transient co-expression by agro-infiltration; GFP fusion of the movement protein as donor, RFP fusion as acceptor; fluorescence lifetime of the donor measured at tubules or plasmodesmata

Q: “GFP:2B (Grapevine fanleaf virus movement protein 2B fused to EGFP) (natural protein)” was tested. Which mean FRET (percent) did it give?
A: The mean FRET (percent) was 24%.
